Reference: the nanobody polyreactivity screen of Harvey et al. (2022)

Assay: yeast display, Sf9 membrane polyspecificity reagent, FACS + sequencing; frameworks hold sequencing errors
Procedure, shortened: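 Galactose-induced (36–48 hours) yeast carrying a synthetic nanobody display library were exposed to 10% biotinylated, detergent-solubilized Sf9 membrane reagent at 4 °C for 1 hour. FACS followed streptavidin microbead enrichment, using low and high (top ~1%) gates for expression (anti-HA) and reagent binding (streptavidin). Colony PCR, MiSeq 2 × 250 sequencing and CDR-length filtering followed. Labels for polyreactivity reflect the gate of origin.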

In the case of “QVQLVESGGRLVQAGGSLRLSCAASGSIFPGNAMGWYRQAPGKDREYVGAISWSGGSTNYADSVKGRFTISRDNAKYTVYLQMNSLKPEDTAVYYCAKRFVRLDPTTQLYGKAYEYWGQGTQVTVSS”, the “polyreactivity (PSR sort gate)” value is reported as “high polyreactivity”.
With “QVQLVDSGGGLVQAGGSLRLSCAASGSIFYYYAMVWYRQAPGKERELVAAISRNGGSTSYADSVKGRFTISRDNAKNTVYLQMNSLKPEDTAVYYCAVRKFHYFRYEYWGQGTQVTVSS” the “polyreactivity (PSR sort gate)” value was “low polyreactivity”.
In the case of “QVQLVESGGVLVQAGGSLRISCAASGSIFGSYAMGWYRQAPGKEREFVAAIRRSSASTYYADSVKGRFTISRDNAKNTVYLQMYSLKPEDTAVYYCATQCYCYYGYRYRYAAYDYRGQGTQVTVSS”, the “polyreactivity (PSR sort gate)” value is reported as “high polyreactivity”.
With “QVQLVESGGGLVQAGGSLRLSCAASGITFVLYAMGWYRQAPGKERELVAAITWRGGSTYYADSVKGRFTISRDNAKNTVYLQMNSLKPEDTAVYYCAAVQFTSYRQGDYWGQGTQVTVSS” the “polyreactivity (PSR sort gate)” value was “low polyreactivity”.
For “QVHLVESGGGLVQAGGSLRLSCAASGSTFIYYGMGWYRHAPGKERELVATISSGGSTNYADSVKGRFTISRDNAKNTVYLQMNSLKPEDTAVYYCAVAPYYYGLLWNTFYEYYYWGQGTQVTVSS”, the “polyreactivity (PSR sort gate)” value was “high polyreactivity”.
For “QVQLVESGGGLVQAGGSLRLSCDASGRIFRVYAMGWYRQAHGKERQLVAAIRWTGGSTYYADSVKGRFKISRDNAKNTVYLQMNSLKPEDTAVYYCAAGRYYSDGSRTIYDYWGQGTQVTVSS”, the “polyreactivity (PSR sort gate)” value was “low polyreactivity”.
For “QVQLVESGGVLVQAGGSLRLSCAASGNTFWLNAMGWYRQSPGKERELVDAITYTDGSTYADSVKGRFTISRDNAKNTVYLQMNSLKPEDTAVYYCAVANPSPYEWIAYYYWGQGTQVTVSS”, the “polyreactivity (PSR sort gate)” value was “low polyreactivity”.
In the case of “QVQLVESGGGLVQAGGSLRLSCAASGRTFDRNAMGWYRQAPGKEREVVAAISSSSGSTYYADSVKGRFTISRDNAKNTVYLQMNSLKPEDTAVYYCATVRWYYSRPRPTTAYGYWGQGTQGTVSS”, the “polyreactivity (PSR sort gate)” value is reported as “high polyreactivity”.
In the case of “QVQLVESGGGLVQAGGSLRLSCAASGRIYNSYAMGWYRQAPGKERELVASTNYADSVKGRFTISRDNAKNTVYLQMNSLKPEDSAVYYCARVDVGWQGGEVLFGRFGYWGQGTQVTVSS”, the “polyreactivity (PSR sort gate)” value is reported as “low polyreactivity”.
With “QVQLVESGGGLVQAGGSLRLSCAASGRIFGAYAMGWYIQAPGKERELVAAIDIRGGNTYYADSVKGRFTISRDNAKNTVYFQMNSQKPVDTAVYYCAADTWYDAYNYWGQGTQVTVSS” the “polyreactivity (PSR sort gate)” value was “low polyreactivity”.
In the case of “QVQLVESGGGLVQAGGSLRLSCAASGLTSVYNAMGWYRQAPGKERELVAAISWRGGRTYYADSVKGRFTISRDNAKNTVYLQMNSLKPEDTAVYYCARGYYTRPYYNPVFGYNYWGQGTQVTVSS”, the “polyreactivity (PSR sort gate)” value is reported as “high polyreactivity”.
With “QVQLIESGGGLDQAGGSLRLSCAASGFIFWEYAMGWYRQAPGKERELVAGISTSGGSTYYADSVKGLFTISRDNAKNTVYLQMNSLKPEDTAVYYCAVEGWDDTYFRQDMDYWGQGTQVTVSS” the “polyreactivity (PSR sort gate)” value was “low polyreactivity”.
In the case of “QVQLVESGGGLVQGGGSLRLSCAASGGTIGRNAMGWYRQAPGKERELVANITRRGGSTYYADSVKGRFTISRDNAKNTVYLQMNSLKAEDTAVYYCAARDVYRGGLFDYWGQGTQVSVSS”, the “polyreactivity (PSR sort gate)” value is reported as “high polyreactivity”.
With “QVQLVESGGGLVQAGGSLRLSCAASGRIFEKYAMRWYREAPGKERELVAAMTRSGGRTYYADSVKGRFTISRDNAKNTVYLQMNSQKPEDTAVYYCAARYVSRFDWGQGTQVTVSS” the “polyreactivity (PSR sort gate)” value was “high polyreactivity”.
In the case of “HVQLQESGGGLVQAGGSLRLSCAASGNISNSRNMGWYRQAPGKERELVAAIDRGAITYYADSVKGRFTISRDNAKNTVYLQIYSLKPEDTAVYYCAAEYHDRWDHRYWGQGTQVTVSS”, the “polyreactivity (PSR sort gate)” value is reported as “high polyreactivity”.
For “QVQLVESGGGLVQAGVSLRLSCAASGNIFRYYVMGWYRQAPGKEREFVAAITSSGGSTYYADSVKGRFTISRDNAKKSFYLQMNSLKPEDSAVYYCAKDYWDPGWAEYDYWGQGTQVTVSS”, the “polyreactivity (PSR sort gate)” value was “low polyreactivity”.
For “QVQLVESGGGLVQAGGSLRLSCSATGFIFYRYAMGWYRQAPGKERELVAAISSSGGSTYYADSVKGRFTISRDNAKTTVSLQMNSLKPEDTAVYYCNKRPQQYRPGYDYWGQGTQVTVSS”, the “polyreactivity (PSR sort gate)” value was “high polyreactivity”.
In the case of “QVQLVESGGGLVQAGGSLRLICAASGSIFYFYAMGWYREAPGKERELVAAIRYNGGSTYYADSVKGRFTISRDNAKNTVYLQMNSLKPEDTAVYYCAAGGFHYVYYRGMYYWGQGTQVTVSS”, the “polyreactivity (PSR sort gate)” value is reported as “high polyreactivity”.
In the case of “QVQLVESGGGLVQAGGSLRLSCAASGSIFYRYAMGWYRQAPGKERELVAAINWSGGSTYYADSVKGGFTISRDNAKNTVYLQMNTLKPEDTAVYYCAARLYWRRYDYWGQGTQVTVSS”, the “polyreactivity (PSR sort gate)” value is reported as “high polyreactivity”.
For “QVQLVESGGGLVQAGGSLRLSCAASGSTFGSYAMGWYRQAPGKERELVAAISRSGTSTYYADSVKGRFTISRDNAKNTVYLQMNSLKPEETAVYYCAAKFVTSGGLEGYWGQGTQVTVSS”, the “polyreactivity (PSR sort gate)” value was “high polyreactivity”.
In the case of “QVQLVESGGGLVQAGGSLRLSCAASGSTLVGYAMGWYRQAPGKERELVAAISSSGTSTYYADSVKGRFSISRDNAKNTVYLQMNSLKPEDTAVYYCSARQRGTYGYWGQGTQVTVSS”, the “polyreactivity (PSR sort gate)” value is reported as “high polyreactivity”.
In the case of “QVQLVESGGGLVQAGGSLRLSCAASGFTFYSNAMGWYRQAPGKERELVAAISYSGGSTYYADSVKGRFTISRDNAKNTVYLQMNSLKPEDTAVYYCAAGGLQQGDYWGQGTQVTVSS”, the “polyreactivity (PSR sort gate)” value is reported as “low polyreactivity”.
In the case of “QVHLVESGGGLVQAGGSLRLSCAASALTDGRYAMGWYRQAPGKERELVADIRYRAGSTNYADSVKGRFTISRDNAKNTVYLQMNSLKPEDTAVYYCAKGHPNDFGYWGQGTQVTVSS”, the “polyreactivity (PSR sort gate)” value is reported as “high polyreactivity”.
In the case of “QVQLVESGGGLVQAGGILRLSCAASGRIFCSYAMGWYRQAPGKERELVAAITRGASTNYADSVKGRFTISRDNAKNIVYLQMNSLKPEDTAVYYCAAGWGRYPILGYYYWGQGTQVTVSS”, the “polyreactivity (PSR sort gate)” value is reported as “high polyreactivity”.
For “QVQLVESGGGLVQAGGSLRLSCAASGRIFGSYAMGWYRQAPGKERELVAAISGDGDSTYYADSVKGRFTISRDNAKNTVYFQMNSLKPEDTAVYYCAAEPNVYFSVFVLFPSDYWGQGTQVTVSS”, the “polyreactivity (PSR sort gate)” value was “low polyreactivity”.
With “QVQLVESGGGLVQAGGSLRLSCAASGSTFRTNTRGWYRQAPGKERELVAAITKSGGSTYYADSVKGRFTISRDNAKNTVYLQMNSLKPEDTAVYYCAARVLYRSGLRGDYWGQGTQVTVSS” the “polyreactivity (PSR sort gate)” value was “high polyreactivity”.
In the case of “QVQLEESGGGLVQAGGSLRLSCAASGRTFKLNAMGWYRQAPGKERELVAAISRNGGSTYYADSVKGRFTISRDNAKNTVYLQMNSLKPEDTAVYYCAAVRHGVSLAGYYWGQGTQVTVSS”, the “polyreactivity (PSR sort gate)” value is reported as “high polyreactivity”.
With “QVQLVESGGGLVQAGGSLRLSCAASGSIFYSYAMGWYRQAPGKERELVAAISYSSGSTYYADSVKGRFTISRDNAKNTVYLQMNSLKPEDTAVYYCAAEGNGWQVDVTEVGEYDSWGQGTQVTVSS” the “polyreactivity (PSR sort gate)” value was “high polyreactivity”.
With “QVQLVESGGGLVQAGGSLRLSCAATGSIFVPNTMGWYRQAPGKERELVADINSDTGRTYYADSVKGRFTISRDNAKNTVYLQMNSLKPEDTAVYYCAAEWYSFWSSVEYDYWGQGTQVTVSS” the “polyreactivity (PSR sort gate)” value was “low polyreactivity”.
For “QVQLVESGGGLVQAGGSLRLSCAASGFTFFPNAMGWYRQAPGKERELFAAISRSDDNTFYADSVKGRITISRDNAKNTVYLQMNSLKPEDTAVYYCDKSAVPWRYPRGYDYWGQGTQVTVSS”, the “polyreactivity (PSR sort gate)” value was “low polyreactivity”.
In the case of “QVQLVESGGGLVQAGGSLRLSCAASGRIFYYNAMGWYRQAPGKERELVAAITSVGSTNYADSVKGSFTISRDNAKNTVYLQMNSLKPEDTAVYYCARASAWYVTLVGKYTKYDYWGQGTQVTVSS”, the “polyreactivity (PSR sort gate)” value is reported as “low polyreactivity”.
With “QVQLVETGGGLVQAGGSLRLSCAASGITFERYVMGWYRQAPGKERELVAVITKRGGNTYYADSVKGRFTISRDNAKNTVYLQMNSLKPEDTSVYYCATRSGRSTGDYWGQGTQVTVSS” the “polyreactivity (PSR sort gate)” value was “high polyreactivity”.
With “QVQLVESGGGLVQEGGSLRLSCAASGFIFAWYDMGWYRQAPGKERELVAAISYYGGSTYYADSVKGRFTISRDNAKNTVYLQMNSLKPVDTAVYYCIKVSRGGSYGDAFDYWGQGTQVTVSS” the “polyreactivity (PSR sort gate)” value was “high polyreactivity”.
For “QVQLVESGGGLVQAGGSLRLSCAASGIIFYKYAMGSYRQSPWKERELVAVISRGGGSTYYADSVKGRFTISRDNAKNTVYLQMNSLKPEDTAVYYFAADPRVTRSYTYDYWGQGTQVTVSS”, the “polyreactivity (PSR sort gate)” value was “high polyreactivity”.
In the case of “QVHLVESGGGLVQAGGSLRLSCAASGSTFYRYAMGWYSQAPGKERELVAAISKRGGSTYYADSVKGRFTISRDNAKNTVYLQMNSLKPEDTAGQYCAADPFDYGGGDDYWGQGTQVTVSS”, the “polyreactivity (PSR sort gate)” value is reported as “high polyreactivity”.
In the case of “QVQHVESGGGLVQAGGSLRLSCAASGFTFSVYVLGWSRQAPGKERELVAAITWSGGSTYYADSEQGRITISRDHAKNTVYLQMNSQKPQETAVYYCAAQAFSPHYGWFYYWGQGTQVTVSS”, the “polyreactivity (PSR sort gate)” value is reported as “high polyreactivity”.
For “QVQLVESGGGLVQAGVSLRLSCAASGRTFPRYAMGWYRQAPGKERELVASISYSGGSTYYADSVKVRFTISRDTAKNTVYLQLNSLKPEDTAVYYCARRGRTSFKYYYWGQGTQVTVSS”, the “polyreactivity (PSR sort gate)” value was “high polyreactivity”.
For “QVQLVESGGGLVQAGGSLRLSCAASGFTFYSYAMGWYRQEPGKEREFVAAITSRGGSTYYADSVKGRFTISRDNAKNTVYLQMNSLKPEDNAVYYCAAYAGYSDQARYYYWGQGTQVTVSS”, the “polyreactivity (PSR sort gate)” value was “high polyreactivity”.
For “QVQLQESGGGLVQAGGSLCLSCAASSYFSTYYSMGSYRKAPSKGRELVAAIDSGSSTNYADSVEGRFTISRDNAKNTVYLQMNSLKPGDTAVYYCAARDDARRGFYYWGQGTQVTVSS”, the “polyreactivity (PSR sort gate)” value was “high polyreactivity”.
For “QVQLVESGGGLVQAGGSLRLSCAASGIIFQQYAMGWYRQAPGKERELVAAITYSGDGTYYADSVKGRFTISRDNANNTVYLQMNSLKPEDTAVYYCAAYPRDPYKEYDYWGQGTQVTVSS”, the “polyreactivity (PSR sort gate)” value was “low polyreactivity”.
With “PVQLVESGGGLVQAGGSLRLSCAASGRIFAQYAMGWYRQAPGNERELVADISSGVRTYAASVKGRFTISRDNAKNTVSFQMNSLKPEDTAVYYFNAYYIIFTRNDYWGQGTQVTVSS” the “polyreactivity (PSR sort gate)” value was “low polyreactivity”.
For “QDQLVESGGGLVQAGGSIRLSCAASGGIFESYAMGWYRQAPGKEREMVASISSGGSTYYADSVKGRFTISRDNAKNTVYLQMNSLKPEDTAVYYCNKDYRSVYKGRGFDYWGQGTQVTVSS”, the “polyreactivity (PSR sort gate)” value was “low polyreactivity”.
In the case of “QVQLVESGLGIVQAGGSLRVSCAASGSTISNYAMGWYRHAPGKERELVAAITSGGTTNYADSVKGRFTISRDNAKNTVYFQMNSLIPEDTAVYYCAKRYSYHVPTHLWVEYYYWGQGTQVTVSS”, the “polyreactivity (PSR sort gate)” value is reported as “low polyreactivity”.
